Experimental findings from publication PMC4567411 (Nature, 2015) are described below.

Sequences and labels used below:
B1: biotin-MYC3(44-238) (domain or fragment, Arabidopsis, UniProt Q9FIP9 44-238, looked up)
chain: QPQFNEDTLQQRLQALIESAGENWTYAIFWQISHDFDSSTGDNTVILGWGDGYYKGEEDKEKKKNNTNTAEQEHRKRVIRELNSLISGGIGVSDESNDEEVTDTEWFFLVSMTQSFVNGVGLPGESFLNSRVIWLSGSGALTGSGCERAGQGQIYGLKTMVCIATQNGVVELGSSEVISQSSDLMHKVNNLFNFN
modifications: biotin (site not stated)
B4: biotin-MYC3(5-242) (domain or fragment, Arabidopsis, UniProt Q9FIP9 5-242, looked up)
chain: TSSINFLTSDDDASAAAMEAFIGTNHHSSLFPPPPQQPPQPQFNEDTLQQRLQALIESAGENWTYAIFWQISHDFDSSTGDNTVILGWGDGYYKGEEDKEKKKNNTNTAEQEHRKRVIRELNSLISGGIGVSDESNDEEVTDTEWFFLVSMTQSFVNGVGLPGESFLNSRVIWLSGSGALTGSGCERAGQGQIYGLKTMVCIATQNGVVELGSSEVISQSSDLMHKVNNLFNFNNGGG
modifications: biotin (site not stated)

What all share (experiment): AlphaScreen or HTRF
In test [1] the target is T1, His6Sumo-MED25(407-680) (Arabidopsis, UniProt Q7XYY2 407-680).
T1 sequence (looked up): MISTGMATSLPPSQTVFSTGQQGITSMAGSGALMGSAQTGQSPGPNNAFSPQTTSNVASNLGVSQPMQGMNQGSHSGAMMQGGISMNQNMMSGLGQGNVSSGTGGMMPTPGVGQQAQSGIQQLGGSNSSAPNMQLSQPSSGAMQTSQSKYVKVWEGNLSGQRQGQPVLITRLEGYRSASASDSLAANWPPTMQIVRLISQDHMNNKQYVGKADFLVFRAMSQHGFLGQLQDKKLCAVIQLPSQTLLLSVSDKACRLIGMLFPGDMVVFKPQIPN

For test [2], the target named is B1.
Test [3] has as its target B4.
The target in test [4] is B1. The source holds these as a separate data set.

As to B1, the binding result in test [1] is reported as “binds”.

B2: Jas22^JAZ9 peptide (peptide, UniProt Q8W4J8 218-239, looked up)
peptide: SVPQARKASLARFLEKRKERLM
Regarding B2, the IC50 was ~420 nM in test [2] and ~490 nM in test [3].

B3: His6Sumo-MED25(540-680) (domain or fragment, Arabidopsis, UniProt Q7XYY2 540-680, looked up)
chain: QLSQPSSGAMQTSQSKYVKVWEGNLSGQRQGQPVLITRLEGYRSASASDSLAANWPPTMQIVRLISQDHMNNKQYVGKADFLVFRAMSQHGFLGQLQDKKLCAVIQLPSQTLLLSVSDKACRLIGMLFPGDMVVFKPQIPN
In the case of B3, the binding result in test [4] was “binds”.

In the case of B4, the binding result in test [1] is listed as “binds”.
